We go through two variants from paper PMC6125358, “Mapping the Interface of a GPCR Dimer: A Structural Model of the A2A Adenosine and D2 Dopamine Receptor Heteromer” (Frontiers in Pharmacology, 2018).

The chains are these.
B1: 3xHA-D2R^GFP2 (human D2 dopamine receptor, wild type) [human] / human adenosine receptor fused to Renilla luciferase (A2AR^Rluc) [human] (parent)
chain 1: MPIMGSSVYITVELAIAVLAILGNVLVCWAVWLNSNLQNVTNYFVVSLAAADIAVGVLAIPFAITISTGFCAACHGCLFIACFVLVLTQSSIFSLLAIAIDRYIAIRIPLRYNGLVTGTRAKGIIAICWVLSFAIGLTPMLGWNNCGQPKEGKNHSQGCGEGQVACLFEDVVPMNYMVYFNFFACVLVPLLLMLGVYLRIFLAARRQLKQMESQPLPGERARSTLQKEVHAAKSLAIIVGLFALCWLPLHIINCFTFFCPDCSHAPLWLMYLAIVLSHTNSVVNPFIYAYRIREFRQTFRKIIRSHVLRQQEPFKAAGTSARVLAAHGSDGEQVSLRLNGHPPGVWANGSAPHPERRPNGYALGLVSGGSAQESQGNTGLPDVELLSHELKGVCPEPPGLDDPLAQDGAGVS
chain 2: MDPLNLSWYDDDLERQNWSRPFNGSDGKADRPHYNYYATLLTLLIAVIVFGNVLVCMAVSREKALQTTTNYLIVSLAVADLLVATLVMPWVVYLEVVGEWKFSRIHCDIFVTLDVMMCTASILNLCAISIDRYTAVAMPMLYNTRYSSKRRVTVMISIVWVLSFTISCPLLFGLNNADQNECIIANPAFVVYSSIVSFYVPFIVTLLVYIKIYIVLRRRRKRVNTKRSSRAFRAHLRAPLKGNCTHPEDMKLCTVIMKSNGSFPVNRRRVEAARRAQELEMEMLSSTSPPERTRYSPIPPSHHQLTLPDPSHHGLHSTPDSPAKPEKNGHAKDHPKIAKIFEIQTMPNGKTRTSLKTMSRRKLSQQKEKKATQMLAIVLGVFIICWLPFFITHILNIHCDCNIPPVLYSAFTWLGYVNSAVNPIIYTTFNIEFRKAFLKILHC

Variants of B1 are the subject of the test. The test is described as follows: BRET2 saturation assay. The following applies: with human A2A adenosine receptor fused to Renilla luciferase (A2AR^Rluc) [human]; height of the fitted saturation curve read at x = 6 AU (GFP2-GFP2_0)/Rluc; co-expressed in cells; DeepBlueC substrate, 10 min incubation; read off a plot.
As for chain 2 MDPLNLSWYDDDLERQNWSRPFNGSDGKADRPHYNYYATLLTLLIAVIVFGNVLVCMAVSREKALQTTTNYLIVSLAVADLLVATLVMPWVVYLEVVGEWKFSRIHCDIFVTLDVMMCTASILNLCAISIDRYTAVAMPMLYNTRYSSKRRVTVMISIVWVLSFTISCPLLFGLNNADQNECIIANPAFVVASSIVSFYVPFIVTLLVYIKIYIVLRRRRKRVNTKRSSRAFRAHLRAPLKGNCTHPEDMKLCTVIMKSNGSFPVNRRRVEAARRAQELEMEMLSSTSPPERTRYSPIPPSHHQLTLPDPSHHGLHSTPDSPAKPEKNGHAKDHPKIAKIFEIQTMPNGKTRTSLKTMSRRKLSQQKEKKATQMLAIVLGVFIICWLPFFITHILNIHCDCNIPPVLYSAFTWLGYVNSAVNPIIYTTFNIEFRKAFLKILHC [chain 2 Y192A], the response (netBRET2 ratio) was 0.056.
In the case of chain 2 MDPLNLSWYDDDLERQNWSRPFNGSDGKADRPHYNYYATLLTLLIAVIVFGNVLVCMAVSREKALQTTTNYLIVSLAVADLLVATLVMPWVVYLEVVGEWKFSRIHCDIFVTLDVMMCTASILNLCAISIDRYTAVAMPMLYNTRYSSKRRVTVMISIVWVLSFTISCPLLFGLNNADQNECIIANPAFVVYSSIVSFYVPFIVTLAVYIAIYIVLRRRRKRVNTKRSSRAFRAHLRAPLKGNCTHPEDMKLCTVIMKSNGSFPVNRRRVEAARRAQELEMEMLSSTSPPERTRYSPIPPSHHQLTLPDPSHHGLHSTPDSPAKPEKNGHAKDHPKIAKIFEIQTMPNGKTRTSLKTMSRRKLSQQKEKKATQMLAIVLGVFIICWLPFFITHILNIHCDCNIPPVLYSAFTWLGYVNSAVNPIIYTTFNIEFRKAFLKILHC [chain 2 L207A K211A], the response (netBRET2 ratio) is 0.048.
